Source: patent US20050226881A1 (LUDWIG INSTITUTE FOR CANCER RESEARCH, published 2005)

Target: HLA-Cw*0701 (human)
Experiment: cell-based or functional assay

B1: peptide (D), EGDCAPEEK (amino acids 2-10 of SEQ ID NO: 2) (peptide)
peptide: EGDCAPEEK
- percent lysis (51Cr release) of autologous EBV-B cells loaded with 1 nM peptide, effector/target ratio 5:1: ~34%
